From the supplement of paper PMC10724198 come the findings set out here.

± gives the standard deviation of the averaged measurements.
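Note: PSI is a weighted mean of sequencing reads over stability bins, variants kept only with over 10 reads, mCherry proximal and sfGFP distal, peptide attached via GGGS linker.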

The test system of this series is Saccharomyces cerevisiae. The series is described as follows: protein stability index of tFT-peptide fusion (C-terminal peptide) (PSI (0-1 scale)); higher = more stable (slower turnover). To be noted: genetic background: wild type; temperature: 30 C. How it is done:
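Multiplexed protein stability (MPS) profiling in S. cerevisiae. Random 12-aa peptides (tFT-X12 library) are fused to the C-terminus of a sfGFP-mCherry tandem fluorescent timer, after mCherry and a GGGS linker. Cells are FACS-sorted into 8 mCherry/sfGFP bins and deep-sequenced. The protein stability index (PSI) is the read-weighted bin average, scaled from 0 (unstable) to 1 (stable). Only peptides with >10 reads are reported; cells were grown at 30 °C in SC-His with glucose.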
EGRTQTLPSRVT had a protein stability index of 0.638 ± 0.05.
On to EGVWIVMFCGLL, for which the protein stability index is 0.504 ± 0.11.
EIAGKGFRLGEW returned a protein stability index of 0.74 ± 0.052.
EIKNKENKLKKT came in with a protein stability index of 0.684 ± 0.03.
On to EILGFVFGFFFL, for which the protein stability index was 0.5711 ± 0.0016.
EIRPRPYLCERF returned a protein stability index of 0.7253 ± 0.0064.
To EISKKKKQTKRK belongs 0.768 ± 0.12.
To EIVTTEINKKTN belongs 0.7115 ± 0.004; to EKEGPDRGECGL, 0.682 ± 0.0089; to EKGRERREGGRK, 0.749 ± 0.044.
The sequence EKKEKKETTDTE returned a protein stability index of 0.693 ± 0.023.
To EKKKEKKGKKRE belongs 0.683 ± 0.029; to EKLVAERGMYAT, 0.684 ± 0.041; to EKQKIIRSGCES, 0.746 ± 0.16.
Regarding EKRDRKKNPRGS, the protein stability index was found to be 0.744 ± 0.1.
Take EKSEKSRGNRYV: the protein stability index was 0.72 ± 0.076.
For EKTKEHRNDSQR the value was 0.695 ± 0.014.
For EKVGVTVLLRHV the value was 0.679 ± 0.038; for ELGARGGRGGGR, 0.739 ± 0.038; for ELGGRGPGGWVG, 0.7149 ± 0.0041.
Turning to ELGLGGCGGLGV, the protein stability index was 0.7 ± 0.03.
Sequence ELGSIYDGWARA returned a protein stability index of 0.691 ± 0.011.
To ELKGRQLGSNLK belongs 0.691 ± 0.045.
Take ELKKKYNEKKRI: the protein stability index was 0.6885 ± 0.002.
Sequence ELKVVVTPLVPS displayed a protein stability index of 0.588 ± 0.053.
With EMGGLKACWGVG, the protein stability index was determined as 0.572 ± 0.022.
Turning to EMPQNSKKNQAA, the protein stability index is 0.672 ± 0.06.
For EMRAGNWWGREG the value was 0.728 ± 0.054; for ENKGKKITITNE, 0.625 ± 0.018.
With ENPIASQWVRRY, the protein stability index was 0.6737 ± 0.0039.
To ENQGEKKKKKKR belongs 0.703 ± 0.022; to ENRERVVENLRD, 0.715 ± 0.04; to ENRGSGLQACGA, 0.716 ± 0.1.
As for EPASLTVFEGTS, the protein stability index came out at 0.587 ± 0.022.
In turn, EPPGWGRGTAQG registered a protein stability index of 0.623 ± 0.07.
For EPPQPPSLPPLF the value was 0.739 ± 0.0085; for EQFQLCAREVAK, 0.761 ± 0.047; for EQICNCKIIMVE, 0.5669 ± 0.003.
For EQVTCGGIRVGQ the value was 0.656 ± 0.086.
In the case of ERCLRYRTVVDW, the protein stability index stood at 0.632 ± 0.063.
For ERGACPGLRQLN, the protein stability index was found to be 0.649 ± 0.015.
As to ERGLATGRGGWV, the protein stability index is 0.733 ± 0.064.
Regarding ERGSRKKKDRRR, the protein stability index came to 0.639 ± 0.01.
Sequence ERIGAREQPSAT returned a protein stability index of 0.7075 ± 0.0056.
Turning to ERKKKNPSTTRR, the protein stability index came out at 0.684 ± 0.0086.
For ERNEERKATTRS, the protein stability index came out at 0.726 ± 0.067.
To ERNKQNVTQKVK belongs 0.723 ± 0.028.
To ERPIRPQCVHRM belongs 0.73 ± 0.015.
With ERPRRDTTVSDT, the protein stability index was 0.653 ± 0.0083.
To ERQSMNKRERNP belongs 0.683 ± 0.023; to ERRKQDERKRRV, 0.7059 ± 0.00075.
For ERRSGGHCRKSG the value was 0.685 ± 0.036.
For ERTKKKRRKEKH the value was 0.663 ± 0.011; for ERVWRAALAPVV, 0.618 ± 0.045; for ERWGGSGGGCAA, 0.67 ± 0.051.
Consider ESFFHIKPVLYI, for which the protein stability index turned out to be 0.647 ± 0.058.
The sequence ESFGGKAGRDSM yielded a protein stability index of 0.772 ± 0.049.
For ESFLLSLNLLSY the value was 0.6155 ± 0.0037; for ESNRHSHVVGPA, 0.683 ± 0.013; for ESSPQPIPSRLA, 0.707 ± 0.016.
In the case of ESYRTYNSIQVY, the protein stability index worked out at 0.518 ± 0.015.
ETNSSSEFPLNF yielded a protein stability index of 0.755 ± 0.0089.
For the sequence ETRIRGVMPRAY, the protein stability index was found to be 0.659 ± 0.014.
ETWRRIDRLFGS registered a protein stability index of 0.619 ± 0.058.
